For four substances, activity (fidelity index) and relative cleavage activity (fraction of K30A activity) results are on record in patent publication US20090029376.

Residue numbers refer to the chain shown, from its start.

Holding throughout (assay): cleavage_in_vitro
Series [1] has as its target T1, SalI-HF R107A (Streptomyces albus G) (UniProt Q53608).
T1 sequence: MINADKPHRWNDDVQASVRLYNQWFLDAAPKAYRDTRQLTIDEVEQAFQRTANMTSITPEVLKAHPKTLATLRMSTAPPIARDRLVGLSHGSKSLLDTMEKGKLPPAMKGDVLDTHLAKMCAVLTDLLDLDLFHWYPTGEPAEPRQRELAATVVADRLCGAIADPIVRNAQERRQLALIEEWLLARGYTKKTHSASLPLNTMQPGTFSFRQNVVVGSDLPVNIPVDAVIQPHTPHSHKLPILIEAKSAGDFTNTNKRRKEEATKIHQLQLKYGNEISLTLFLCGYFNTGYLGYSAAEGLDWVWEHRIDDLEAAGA
The conditions noted are these: NEB4, 37 C.

Series [2] concerns the target T2, SalI (Streptomyces albus G) (UniProt Q53608).
T2 sequence: T1 sequence with A107R
The conditions noted are these: NEB3, 37 C; Table 10 prints 4.

Series [3] has as its system T3, AvrII-HF Y104F (Anabaena variabilis).
T3 sequence: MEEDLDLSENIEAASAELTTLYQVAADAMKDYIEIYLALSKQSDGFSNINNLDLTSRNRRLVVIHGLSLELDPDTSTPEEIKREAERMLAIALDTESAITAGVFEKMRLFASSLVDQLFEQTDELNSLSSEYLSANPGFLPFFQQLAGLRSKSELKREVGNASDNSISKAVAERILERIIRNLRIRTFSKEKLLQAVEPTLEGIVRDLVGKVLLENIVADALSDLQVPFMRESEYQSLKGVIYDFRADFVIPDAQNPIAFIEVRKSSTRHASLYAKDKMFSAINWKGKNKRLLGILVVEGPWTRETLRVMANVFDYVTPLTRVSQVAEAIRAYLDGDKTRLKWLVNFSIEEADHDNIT
The conditions noted are these: NEB4, 37 C.

The subject of series [4] is T4, AvrII (Anabaena variabilis).
T4 sequence: T3 sequence with F104Y
As to conditions: NEB4, 37 C.

In series [5] the target is T5, PvuII-HF T46G (Proteus vulgaris) (UniProt P23657).
T5 sequence: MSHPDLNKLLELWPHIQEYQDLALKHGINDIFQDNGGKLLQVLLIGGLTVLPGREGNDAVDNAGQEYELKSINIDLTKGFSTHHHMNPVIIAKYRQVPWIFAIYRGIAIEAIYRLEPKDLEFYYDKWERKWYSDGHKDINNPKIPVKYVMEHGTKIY
As to conditions: NEB4, 37 C.

In series [6] the target is T6, BamHI(K30A/K52A) K30A/K52A (Bacillus amyloliquefaciens) (UniProt P23940).
T6 sequence: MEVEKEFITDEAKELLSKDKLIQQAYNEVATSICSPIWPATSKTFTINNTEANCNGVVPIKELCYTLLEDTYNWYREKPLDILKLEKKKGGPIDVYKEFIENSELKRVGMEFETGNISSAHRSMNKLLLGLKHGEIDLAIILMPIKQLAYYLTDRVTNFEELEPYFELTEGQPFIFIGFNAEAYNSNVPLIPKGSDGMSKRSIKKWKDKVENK
As to conditions: NEB2, 37 C.

In series [7] the target is T7, BamHI(K30A/K88A) K30A/K88A (Bacillus amyloliquefaciens) (UniProt P23940).
T7 sequence: T6 sequence with A52K, K88A
As to conditions: NEB2, 37 C.

Series [8] relates to T8, BspQI-HF K279P/R388F (Bacillus sphaericus).
T8 sequence: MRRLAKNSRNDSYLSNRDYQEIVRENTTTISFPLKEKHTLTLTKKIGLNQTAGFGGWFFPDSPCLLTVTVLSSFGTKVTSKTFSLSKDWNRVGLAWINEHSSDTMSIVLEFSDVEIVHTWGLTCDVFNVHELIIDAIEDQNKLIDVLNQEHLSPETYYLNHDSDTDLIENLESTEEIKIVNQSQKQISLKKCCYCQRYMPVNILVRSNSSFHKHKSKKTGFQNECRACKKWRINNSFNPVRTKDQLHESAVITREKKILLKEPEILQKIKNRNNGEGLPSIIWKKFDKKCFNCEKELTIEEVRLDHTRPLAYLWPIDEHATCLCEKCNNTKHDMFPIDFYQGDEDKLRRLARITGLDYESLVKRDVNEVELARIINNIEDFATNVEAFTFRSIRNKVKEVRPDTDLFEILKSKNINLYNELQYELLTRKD
As to conditions: NEB4, 50 C.

Consider HindIII-digested lambda DNA, for which the activity (fidelity index) was above 2000 in series [1] and 32 in series [2].

As to T7 DNA, the activity (fidelity index) in series [3] was found to be 1000; in series [4] it was 32.

The substance pBR322 gave an activity (fidelity index) in series [5] of 500.

pUC19: the relative cleavage activity (fraction of K30A activity) in series [6] and in series [7] was 0.1 each time. The activity (fidelity index) in series [8] was above 4000.
